Data: patent US11360100B2, “Methods and compositions useful in detecting proteins” (OREGON HEALTH & SCIENCE UNIVERSITY, priority 2016, dated 2022)
Entries after “also recorded” stand apart in the source; their conditions may differ. rhodamine = not defined here; BODIPY = not defined here

How the values were obtained:
[1] = system: CoilZ-EGFP; assay: SDS-PAGE/PVDF membrane labeling of transfected HEK293FT lysates, CoilZ-EGFP; format: binding; conditions: cell lysates, SDS-PAGE, PVDF membrane
Method: The CoilY and CoilZ pair could be used to label two protein targets simultaneously. Transfected HEK293FT cell lysates from cells expressing mCherry, CoilY-mCherry, EGFP, or CoilZ-EGFP were resolved by SDS-PAGE and transferred to a PVDF membrane. The membrane was incubated sequentially with CoilZ-fluorescein and CoilY-rhodamine before imaging. GFP and mCherry fluorescence was not preserved due to SDS-PAGE protein denaturation.
(§1) A protein gel-based assay was optimized for analyzing VIP tags in vitro. Cell lysates were made from cells transfected with mCherry, CoilY-mCherry, GFP, or CoilZ-GFP, resolved by SDS-PAGE, and transferred to a membrane. GFP and mCherry fluorescence were not preserved in this experiment. The membrane was then contacted with CoilZ-fluorescein and CoilY-rhodamine before imaging. […] The probe peptides were specific for each tagged protein, and this single pair enabled specific and selective protein tagging of two distinct targets. In addition both the VIP E/R and VIP Y/Z tag sets could be used concurrently to label two recombinant proteins (DHFR and mCherry) without crosstalk (FIG. 23).

[2] = system: CoilY-EGFP; assay: Fluorescence microscopy labeling of cell-surface CoilY-GFP (CoilY-EGFP); format: cell-based, human
Method: (§2) Fluorescence microscopy was used to confirm that the VIP Y/Z tag set enabled selective fluorescent labeling of proteins (FIGS. 3A and 3B). CoilZ was expressed by fusion to a cell-surface localized variant of GFP (CoilZ-GFP; pDisplay vector). […] Labeling was rapid (<30 min), target-specific, and live-cell compatible. Homodimerization between a CoilZ probe peptide and CoilZ-GFP was not observed. Cells expressing untagged GFP were not labeled with the CoilY probe peptide. CoilY was also expressed fused to the cell surface localized GFP and visualized using a CoilZ-AF647 probe peptide (FIG. 3B). No homodimerization of CoilY was observed, and the labeling was specific.
The CoilY/CoilZ tag set is bidirectional—either CoilZ or CoilY can serve as the probe peptide. CoilY-EGFP was expressed on the surface of U2OS cells and labeled with CoilZ-AF647. Protein labeling was rapid (<30 min) and specific; non-specific labeling of untagged EGFP was not observed. Homodimerization was not observed for either CoilZ-AF647 with CoilZ-EGFP or CoilY-AF647 with CoilY-EGFP (FIG. 3B).
(§3) The CoilY/CoilZ tag set is also compatible with live-cell imaging. CoilZ-EGFP was contacted with CoilY-AF647 in live U2OS cells. […] Homodimerization was not observed for CoilY-EGFP incubated with CoilY-AF647. Non-specific labeling of untagged GFP was not observed (FIG. 26). Cells internalize labeled targets over time. CoilZ-GFP and CoilY-AF647 co-localization was observed on the surface and in endocytic vesicles due to rapid internalization, and AF647 signal accumulated inside cells during a 40 min. long incubation at room temperature (FIG. 12).

[3] = system: untagged GFP/EGFP and mCherry; assay: Fluorescence microscopy, cells expressing untagged fluorescent proteins; format: cell-based, human
Method: as §2
(§4) It was next confirmed that the VIP Y/Z tag set could be used in two-target imaging in fixed cells (FIGS. 5B and 13). A combination of cell lines singly-transfected with mCherry, GFP, CoilY-mCherry, or CoilZ-GFP was used, as illustrated in FIG. 9. […] Then we labeled two tagged FPs in one sample using a mixed population of cells expressing either CoilY-mCherry or CoilZ-GFP.
(§5) The disclosed methods were tested in transfected human osteosarcoma cells (U-2 OS). A pDisplay vector was used to target CoilZ-EGFP and untagged EGFP to the cell surface. This construct includes a C-terminal fusion to the transmembrane domain of the platelet derived growth factor receptor. As expected, both CoilZ-EGFP and untagged EGFP localized to the cell surface, and green fluorescence was observed within 24 h of transfection. Then the cells were blocked with 6% BSA and 10% FBS for 30 minutes at 37° C. and then contacted with an AF647-conjugated CoilY probe (CoilY-AF647), 30 min at 4° C. Cells were fixed before imaging by confocal fluorescence microscopy. The probe peptides are membrane impermeant; only cell-surface EGFP was accessible to CoilY-AF647 for labeling. Colocalization of green fluorescent CoilZ-EGFP with CoilY-AF647 was observed.
The CoilY/CoilZ tag set is bidirectional—either CoilZ or CoilY can serve as the probe peptide. CoilY-EGFP was expressed on the surface of U2OS cells and labeled with CoilZ-AF647. […]

[4] = system: untagged EGFP-TM; assay: Flow cytometry of probe labeling, live U-2 OS cells expressing untagged EGFP-TM; format: cell-based, human; conditions: 500 nM probe
Method: The in vitro results were translated to living cells. Flow cytometry was used to evaluate protein labeling in live human osteosarcoma (U-2 OS) cells expressing CoilZ-EGFP-TM, CoilY-EGFP-TM, or untagged EGFP-TM (FIG. 11). Cells were treated with 500 nM AF647-conjugated probe peptide before analysis, and we gated for EGFP-expressing cells. […] Non-specific labeling of untagged EGFP-TM and homodimerization with CoilY-EGFP-TM were minimal for cells exposed to CoilY-AF647. Cells expressing CoilY-EGFP-TM were labeled with CoilZ-AF647, but with only a 4-fold enhancement.
Protein labeling was assessed as a function of CoilY-AF647 concentration (FIG. 25). Live cells expressing CoilZ-EGFP-TM or untagged EGFP-TM were treated with a range of CoilY-AF647 concentrations (50 nM to 1000 nM for 30 min at room temperature). […] Cells had 21- to 44-fold higher median fluorescence compared to cells expressing untagged protein. Treatment with 300 nM AF647-CoilY gave optimal labeling, with 98% of cells labeled and a 35-fold increase in AF647 fluorescence. Treatment with an excess of probe peptide (i.e., 1000 nM) enhanced the AF647 signal, but at the cost of a small increase in non-specific labeling.

[5] = system: CoilZ-EGFP; assay: Fluorescence microscopy labeling of cell-surface CoilZ-GFP (CoilZ-EGFP); format: cell-based, human; conditions: fluorescence microscopy
Method: as §2, §4, §5, §3
The VIPY/Z tag set can be used to label multiple protein targets simultaneously. Cells expressing CoilY-mCherry were combined with those expressing CoilZ-EGFP-pDisplay (FIG. 9). This mixed cell population, as well as unmixed CoilZ-GFP, CoilY-mCherry, and untagged controls, were plated for imaging. […] Fluorescence was detected by confocal fluorescence imaging. […]

[6] = molecular target: T1, untagged TfR1 (Homo sapiens, UniProt P02786); assay: CoilR probe labeling of CHO TRVb cells expressing untagged TfR1; format: cell-based; conditions: labeled at 4° C.
T1 construct: expressed in transfected cells; host or cells: CHO TRVb
T1 sequence (P02786 whole entry): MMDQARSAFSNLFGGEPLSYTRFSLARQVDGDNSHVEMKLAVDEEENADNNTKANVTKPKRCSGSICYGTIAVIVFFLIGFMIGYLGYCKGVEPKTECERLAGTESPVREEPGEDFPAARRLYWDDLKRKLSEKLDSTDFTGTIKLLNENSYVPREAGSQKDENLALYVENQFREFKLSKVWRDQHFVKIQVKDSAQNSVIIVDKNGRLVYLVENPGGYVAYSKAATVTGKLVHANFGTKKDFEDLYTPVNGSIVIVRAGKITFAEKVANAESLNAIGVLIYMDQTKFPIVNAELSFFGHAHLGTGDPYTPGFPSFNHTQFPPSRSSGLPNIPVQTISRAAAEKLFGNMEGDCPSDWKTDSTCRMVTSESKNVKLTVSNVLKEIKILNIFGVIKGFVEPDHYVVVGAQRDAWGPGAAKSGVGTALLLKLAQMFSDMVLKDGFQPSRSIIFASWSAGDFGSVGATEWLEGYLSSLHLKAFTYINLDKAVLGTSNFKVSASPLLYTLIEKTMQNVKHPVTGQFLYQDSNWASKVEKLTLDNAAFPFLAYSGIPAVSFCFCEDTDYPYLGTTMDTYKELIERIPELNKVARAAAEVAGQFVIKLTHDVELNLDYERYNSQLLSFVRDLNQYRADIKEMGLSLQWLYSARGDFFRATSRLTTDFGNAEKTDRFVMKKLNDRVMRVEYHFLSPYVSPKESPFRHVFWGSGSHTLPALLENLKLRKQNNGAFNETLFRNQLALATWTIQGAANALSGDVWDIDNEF

[7] = system: TfR1-MiniE; assay: miniVIPER versus VIPER labeling of TfR1 in CHO TRVb cells; format: cell-based; conditions: Tf-AF488 and full length CoilR-Cy5
Method: FIG. 24 A and B are fluorescent micrographs comparing VIP E/R labeling with miniVIPER (MiniE and MiniR) labeling of TfR1. […] After labeling cells were imaged over time during a 30 min incubation at 37° C. Cells were imaged as confocal slices at 63× magnification. Transferrin-AF488 was false-colored green, CoilR-Cy5 was false-colored magenta, and nuclei were stained with Hoechst and false-colored blue. Individual channels are shown in FIG. 24B (blue, green, magenta) for the 5 minute timepoint. A Pearson's correlation analysis was used to compare fluorescence co-localization of CoilR-Cy5 with Transferrin-AF488. The p values are reported on the image and indicate that TfR1-miniE had better co-localization between Tf and CoilR labeling.
VIP E/R was edited by removing a heptad repeat, and changing key residues in the sequence to maximize affinity, improve dimer interface and create a smaller tag pair with more favorable charge balance for imaging in cells. MiniE (SEQ ID NO:10) and MiniR (SEQ ID NO:9) were created. TfR1 was tagged at the C-terminus with MiniE.

[8] = system: untagged mCherry and DHFR; assay: SDS-PAGE/PVDF membrane labeling, untagged proteins; format: binding; conditions: lysates and purified proteins, PVDF membrane
Method: Crude lysates (lys.) and purified proteins (serial dilutions) were resolved by SDS-PAGE. Lysates were prepared from HERK 293FT cells transfected with mCherry, CoilY-mCherry, DHFR, and CoilE-DHFR. The protein gel was transferred to a PVDF membrane and then incubated with CoilZ-Fluorescein and CoilR-rhodamine. After washing, the membrane was imaged to detect VIPER labeling of DHFR (red) and VIP Y/Z labeling of mCherry (green). Untagged proteins were not labeled by either CoilR-rhodamine or CoilZ-fluorescein.
as §1

[9] = molecular target: coiled-coil heterodimer pairs; conditions: heterodimer pair, Table 2; cited from earlier work

B1: CoilY-rhodamine: red fluorescent CoilY probe peptide, maleimide conjugate (conjugate)
peptide: MGSSNTVKELKNYIQELEERNAELKNLKEHLKFAKAELEFELAAHKFEGGGAAAC(rhodamine)LGKLAAALEHHHHHH
modifications: reading uncertain
notes: red fluorescent CoilY probe peptide, maleimide conjugate
probe peptide binding to CoilZ-EGFP on membrane [1]: specific coiled-coil heterodimer formation could be detected; also recorded: Probe peptide binding was detected

B2: CoilZ-AF647: CoilZ probe peptide conjugated to AF647 (conjugate)
peptide: MGSSQKVAQLKNRVAYKLKENAKLENIVARLENDNANLEKDIANLEKDIANLERDVARGGGAAACLGKLAAALEHHHHHH
labeling time (rapid) ([2]; CoilY-EGFP on surface of U2OS cells): < 30 min
labeling of CoilY-GFP/EGFP (specificity) ([2]; fluorescence microscopy): specific
non-specific labeling of untagged fluorescent proteins [3]: not observed
non-specific labeling of untagged EGFP-TM [4]: slightly higher
homodimerization / cross-reactivity of CoilZ probe with CoilZ-GFP/EGFP [5]: not observed

B3: CoilZ probe peptide: CoilZ with linker, reactive cysteine and His6 tag, SEQ ID NO: 14 (peptide)
chain: B2 peptide
homodimerization / cross-reactivity of CoilZ probe with CoilZ-GFP/EGFP [5]: not observed

B4: CoilY probe peptide: CoilY with linker, reactive cysteine and His6 tag, SEQ ID NO: 13 (peptide)
chain: MGSSNTVKELKNYIQELEERNAELKNLKEHLKFAKAELEFELAAHKFEGGGAAACLGKLAAALEHHHHHH
non-specific labeling of untagged fluorescent proteins [3]: not labeled

B5: CoilR-BODIPY: CoilR probe peptide conjugated to BODIPY (conjugate)
peptide: MGGSLEIRAAFLRQRNTALRTEVAELEQEVQRLENEVSQYETRYGPLGGGAAALGC(BODIPY)LAAALEHHHHHH
modifications: reading uncertain
labeling of cells expressing untagged TfR1 [6]: showed now labeling

B6: miniVIPER: shorter, better charge balanced VIP E/R pair of MiniE and MiniR (peptide)
chain 1: LEIRVAFLRQRNTALRTEVAELEQEVQRLENRYGPL
chain 2: LEIEAAFLERENTALETRVAELRQRVQRLRNEYGPL
Tf-AF488 signal compared to VIPER [7]: brighter Tf-A488 signal
colocalization between Tf-AF488 and CoilR-Cy5 compared to VIPER [7]: improved colocalization

B7: CoilR-rhodamine: CoilR probe peptide conjugated to rhodamine (conjugate)
peptide: MGGSLEIRAAFLRQRNTALRTEVAELEQEVQRLENEVSQYETRYGPLGGGAAALGC(rhodamine)LAAALEHHHHHH
modifications: reading uncertain
labeling of untagged proteins on membrane [8]: not labeled

B8: VIP 1/2: heterodimeric tag pair of Coil1 and Coil2 (peptide)
chain 1: NLVAQLENEVASLENENETLKKKNLHKKDLIAYLEKEIANLRKKIEE
chain 2: ARNAYLRKKIARLKKDNLQLERDEQNLEKIIANLRDEIARLENEVASHEQ
Kd [9]: < 0.01 µM

B9: VIP 3/4: heterodimeric tag pair of Coil3 and Coil4 (peptide)
chain 1: NEVTTLENDAAFIENENAYLEKEIARLRKEKAALRNRLAHKK
chain 2: QKVAELKNRVAVKLNRNEQLKNKVEELKNRNAYLKNELATLENEVARLENDVAE
Kd [9]: < 0.03 µM
